Data on two molecules can be found in patent US20250333467A1 (TECTONIC OPERATING, published 2025).

What all share (test): cell-based or functional assay
Test [1] addresses T1, human RXFP1 (human, UniProt Q9HBX9 1-757).
T1 sequence (looked up): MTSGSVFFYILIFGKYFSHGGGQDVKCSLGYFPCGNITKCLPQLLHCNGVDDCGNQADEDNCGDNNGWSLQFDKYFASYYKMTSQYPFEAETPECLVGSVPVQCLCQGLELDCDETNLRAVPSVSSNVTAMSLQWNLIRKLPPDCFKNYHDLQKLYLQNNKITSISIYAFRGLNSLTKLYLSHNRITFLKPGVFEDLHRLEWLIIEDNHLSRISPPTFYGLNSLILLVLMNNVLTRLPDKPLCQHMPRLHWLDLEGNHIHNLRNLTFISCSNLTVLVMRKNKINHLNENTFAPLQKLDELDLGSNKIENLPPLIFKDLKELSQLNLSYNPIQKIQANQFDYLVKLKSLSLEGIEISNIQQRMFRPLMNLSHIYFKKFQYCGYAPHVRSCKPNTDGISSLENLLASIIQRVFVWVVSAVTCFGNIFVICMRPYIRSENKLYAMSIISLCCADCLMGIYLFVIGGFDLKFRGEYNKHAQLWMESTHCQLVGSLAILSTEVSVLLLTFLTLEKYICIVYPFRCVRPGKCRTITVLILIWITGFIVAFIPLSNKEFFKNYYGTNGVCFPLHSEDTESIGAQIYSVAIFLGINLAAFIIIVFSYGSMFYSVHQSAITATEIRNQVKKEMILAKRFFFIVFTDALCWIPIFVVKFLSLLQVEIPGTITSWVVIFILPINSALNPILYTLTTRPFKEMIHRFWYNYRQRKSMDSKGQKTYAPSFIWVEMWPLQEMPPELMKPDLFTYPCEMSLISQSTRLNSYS

Test [2] deals with T2, rat RXFP1 (rat, UniProt Q6R6I6 1-758).
T2 sequence (looked up): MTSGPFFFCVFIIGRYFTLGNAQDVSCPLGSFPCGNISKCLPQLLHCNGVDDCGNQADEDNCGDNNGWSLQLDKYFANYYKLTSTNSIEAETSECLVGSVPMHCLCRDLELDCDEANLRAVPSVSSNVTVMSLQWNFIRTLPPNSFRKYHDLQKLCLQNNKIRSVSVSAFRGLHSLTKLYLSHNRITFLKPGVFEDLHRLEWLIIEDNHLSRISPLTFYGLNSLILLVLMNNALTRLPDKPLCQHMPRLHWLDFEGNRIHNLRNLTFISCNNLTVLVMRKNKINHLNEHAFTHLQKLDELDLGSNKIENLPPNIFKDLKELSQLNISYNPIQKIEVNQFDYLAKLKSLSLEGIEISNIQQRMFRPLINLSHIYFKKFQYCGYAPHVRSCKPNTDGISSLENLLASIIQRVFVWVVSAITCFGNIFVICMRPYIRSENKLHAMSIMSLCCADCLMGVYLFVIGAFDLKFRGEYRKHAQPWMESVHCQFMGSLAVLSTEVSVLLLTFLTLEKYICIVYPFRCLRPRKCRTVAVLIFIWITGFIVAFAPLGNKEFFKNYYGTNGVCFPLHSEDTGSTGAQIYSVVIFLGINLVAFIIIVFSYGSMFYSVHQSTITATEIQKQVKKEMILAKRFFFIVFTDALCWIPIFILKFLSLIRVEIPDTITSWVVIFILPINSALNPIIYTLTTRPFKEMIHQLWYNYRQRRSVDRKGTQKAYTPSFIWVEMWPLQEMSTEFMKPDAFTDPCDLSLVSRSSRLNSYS

Test [3] deals with T1, human RXFP1. The source holds these as a separate data set.
For test [4], the target named is T1, human RXFP1. This is another data set of the same source.
Test [5] addresses T1, human RXFP1. The source holds these as a separate data set.
For test [6], the target named is T2, rat RXFP1. The source holds these as a separate data set.
The target in test [7] is T1, human RXFP1. This is another data set of the same source.
In test [8] the target is T2, rat RXFP1. The source holds these as a separate data set.
The target in test [9] is T3, cynomolgus monkey RXFP1 (cynomolgus monkey, UniProt H9ERA2 1-757 (rhesus entry)).
T3 sequence: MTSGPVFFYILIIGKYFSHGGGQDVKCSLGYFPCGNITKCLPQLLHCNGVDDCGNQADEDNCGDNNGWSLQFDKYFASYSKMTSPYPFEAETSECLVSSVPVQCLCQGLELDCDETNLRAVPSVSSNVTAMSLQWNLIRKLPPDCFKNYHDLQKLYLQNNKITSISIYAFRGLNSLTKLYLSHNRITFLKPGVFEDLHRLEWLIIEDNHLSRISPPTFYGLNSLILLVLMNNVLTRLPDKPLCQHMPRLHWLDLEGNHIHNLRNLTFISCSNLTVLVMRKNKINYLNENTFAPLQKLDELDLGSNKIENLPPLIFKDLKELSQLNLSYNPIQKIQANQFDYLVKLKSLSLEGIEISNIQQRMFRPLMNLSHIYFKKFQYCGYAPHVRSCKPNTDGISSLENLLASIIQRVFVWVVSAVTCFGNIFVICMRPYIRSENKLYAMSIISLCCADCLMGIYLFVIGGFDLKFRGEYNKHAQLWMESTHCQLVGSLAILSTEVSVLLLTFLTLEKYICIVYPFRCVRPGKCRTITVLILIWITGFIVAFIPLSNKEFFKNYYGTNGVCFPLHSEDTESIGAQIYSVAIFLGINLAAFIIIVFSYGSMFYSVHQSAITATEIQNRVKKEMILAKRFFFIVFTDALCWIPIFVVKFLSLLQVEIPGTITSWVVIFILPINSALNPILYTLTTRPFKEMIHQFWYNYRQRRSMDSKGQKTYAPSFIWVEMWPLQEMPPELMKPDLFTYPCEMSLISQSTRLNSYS

For test [10], the target named is T4, human RXFP2 (human, UniProt Q8WXD0 1-754).
T4 sequence (Q8WXD0 whole entry): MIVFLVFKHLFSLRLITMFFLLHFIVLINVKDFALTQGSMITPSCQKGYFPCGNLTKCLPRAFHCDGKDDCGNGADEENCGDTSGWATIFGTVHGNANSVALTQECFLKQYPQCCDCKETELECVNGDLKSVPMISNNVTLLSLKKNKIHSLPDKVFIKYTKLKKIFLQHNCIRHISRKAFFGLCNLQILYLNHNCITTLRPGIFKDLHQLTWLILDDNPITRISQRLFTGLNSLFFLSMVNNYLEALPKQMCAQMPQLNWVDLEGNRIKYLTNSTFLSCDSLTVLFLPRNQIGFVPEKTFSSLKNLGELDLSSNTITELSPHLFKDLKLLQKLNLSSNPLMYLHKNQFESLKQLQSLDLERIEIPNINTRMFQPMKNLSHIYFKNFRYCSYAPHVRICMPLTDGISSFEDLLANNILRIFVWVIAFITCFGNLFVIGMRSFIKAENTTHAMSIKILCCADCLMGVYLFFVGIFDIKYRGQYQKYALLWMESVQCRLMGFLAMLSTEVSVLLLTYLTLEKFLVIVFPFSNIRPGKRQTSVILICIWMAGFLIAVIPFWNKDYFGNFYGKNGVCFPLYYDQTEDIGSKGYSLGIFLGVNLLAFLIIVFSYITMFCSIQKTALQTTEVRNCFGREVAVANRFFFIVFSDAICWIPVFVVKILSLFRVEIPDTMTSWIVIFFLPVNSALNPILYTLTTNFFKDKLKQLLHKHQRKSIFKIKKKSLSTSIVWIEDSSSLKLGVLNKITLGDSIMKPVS
Test [11] addresses T4, human RXFP2. The source holds these as a separate data set.
Test [12] has as its target T1, human RXFP1. This is another data set of the same source.
For test [13], the target named is T1, human RXFP1. The source holds these as a separate data set.

Several values for one entry are separate records, joined by “and”; a condition that tells them apart may be missing. Equal entries are not always repeated. Where two headings read alike, the source gives them in different places.

B1: SEQ ID NO: 87 (Fc fusion)
chain: DKTHTCPPCPAPEAAGGPSVFLFPPKPKDTLMISRTPEVTCVVVDVSHEDPEVKFNWYVDGVEVHNAKTKPREEQYNSTYRVVSVLTVLHQDWLNGKEYKCKVSNKALAAPIEKTISKAKGQPREPQVYTLPPSRDELTKNQVSLTCLVKGFYPSDIAVEWESNGQPENNYKTTPPVLDSDGSFFLYSKLTVDKSRWQQGNVFSCSVLHEALHSHYTQKSLSLSPGKGGSDSWQEEVIKLCGRELVRAQIAICGKSTASDAAGAEAEAGARQLYSALANKCCHVGCTKRSLAQFC
As for B1, in test [1], the “THP1 (endogenous RXFP1) cAMP EC50” value is 25 nM and the “Transient HEK293 hRXFP1 cAMP EC50” value was determined as 8.7 nM. For the same molecule, in test [2], the “Transient HEK293 rRXFP1 cAMP EC50” value came out at 10.3 nM. Moreover, the “Potency (cAMP, transient hRXFP1 in HEK293)” value in test [3] was determined as 8.5 nM. For the same molecule, the “Potency (cAMP, transient hRXFP1 in HEK293)” value in [4] was 5.2 nM. Besides, the “EC50 for cAMP generation, recombinant human RXFP1 assay (average)” value in test [5] stood at 10 nM. Besides, in test [6], the “EC50 for cAMP generation, recombinant rat RXFP1 assay (average)” value was determined as 35 nM. In test [7], the “cAMP response EC50, human RXFP1 transient in HEK293” value is 10 nM and 800 ng/mL. The “cAMP response EC50, rat RXFP1 transient in HEK293” value in test [8] is 30 nM and 2000 ng/mL. Moreover, the “cAMP response EC50, cynomolgus monkey RXFP1 transient in HEK293” value in test [9] was 10 nM and 800 ng/mL. Also, the “fold loss of cAMP potency on human RXFP2 against human RXFP1 (CHO-K1, stable)” value in [10] is roughly 100 fold. Besides, the “cAMP response EC50, human RXFP2 stable in CHO-K1” value in test [11] is > 2 µM and > 1e+06 ng/mL. Further, in [12], the “cAMP response EC50, THP-1 (endogenous RXFP1)” value was 10 nM and 900 ng/mL; the “cAMP response EC50, human RXFP1 stable in CHO-K1” value was 40 nM and 2000 ng/mL.

B2: Wild-type human relaxin-2 (ligand)
chain 1: DSWMEEVIKLCGRELVRAQIAICGMSTWS
chain 2: QLYSALANKCCHVGCTKRSLARFC
As for B2, in [1], the “THP1 (endogenous RXFP1) cAMP EC50” value turned out to be 0.2 nM and the “Transient HEK293 hRXFP1 cAMP EC50” value stood at 0.039 nM. Moreover, in test [2], the “Transient HEK293 rRXFP1 cAMP EC50” value amounted to 0.122 nM. In [4], the “Potency (cAMP, transient hRXFP1 in HEK293)” value was 0.1 nM. Also, the “EC50 for cAMP generation, recombinant human RXFP1 assay (average)” value in test [5] was found to be 0.04 nM. Moreover, the “EC50 for cAMP generation, recombinant rat RXFP1 assay (average)” value in test [6] is 0.1 nM. Also, the “cAMP response EC50, human RXFP1 transient in HEK293” value in test [7] was 0.05 nM and 0.3 ng/mL. In addition, the “cAMP response EC50, rat RXFP1 transient in HEK293” value in test [8] was 0.1 nM and 0.6 ng/mL. The “cAMP response EC50, cynomolgus monkey RXFP1 transient in HEK293” value in test [9] is 0.04 nM and 0.2 ng/mL. In addition, the “cAMP response EC50, human RXFP2 stable in CHO-K1” value in test [11] was 10 nM and 90 ng/mL. Besides, in [12], the “cAMP response EC50, THP-1 (endogenous RXFP1)” value was 0.07 nM and 0.4 ng/mL; the “cAMP response EC50, human RXFP1 stable in CHO-K1” value was 0.2 nM and 1 ng/mL. Moreover, in test [13], the “EC50, cAMP response in RXFP1 transfected HEK293 cells” value turned out to be 0.042 nM and the “pEC50, cAMP response in RXFP1 transfected HEK293 cells” value was 10.4.
